From the nanobody polyreactivity screen of Harvey et al. (2022)

assay: yeast display, Sf9 membrane polyspecificity reagent, FACS + sequencing; frameworks hold sequencing errors
Outline: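 Nanobodies came from a synthetic yeast display library in Saccharomyces cerevisiae BJ5465, induced with galactose for 36–48 hours and stained for 1 hour at 4 °C with 10% biotinylated, detergent-solubilized Sf9 membrane reagent. Cells were enriched on streptavidin microbeads and then FACS-sorted, with low and high (top ~1%) gates set on anti-HA fluorescence for expression and streptavidin fluorescence for reagent binding. Each polyreactivity label reflects the gate a clone came from. Genes were amplified by colony PCR, sequenced by MiSeq 2 × 250 and filtered by CDR length.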

Sequence | polyreactivity (PSR sort gate)
QVQLVESGGGLVQAGGSLRLSCAASGSTFTRYGMGWYRQAPGKERELGAAITTSGSSTYYADSVKGRFTISRDNAKNTVYLQMNSLKPEDTAVYYCAADWSSWGFDYWGQGTQVTVSS | low polyreactivity
QVQLVESGGGLVQAGGSLRLSCAASGSTFTSNAMGWYREAPGKEREFVAAISVGGGITYYADSVKGRFTISRDNAKNTVSLQMNSLKPEDTAVYYCAADGEYPHSEDFEYWGQGTQVNVSS | low polyreactivity
QVQLVESGGGLVQAGGSLRLSCAASGSTFTSNAMGWYRQAPGKERELVAAISFSDASTYYADSVKGRFTISRDNAKNTVYLQMNSLKPEDTAVYYCAADSDQDAYDYWGQGTQVTVSS | low polyreactivity
QVQLVESGGGLVQAGGSLRLSCAASGSTFTSNAMGWYRQAPGKERELVASISWSGGRTYYADSVKGRFTISRDNAKNTVYLQMNSLKPEDTAVYYCAAASYQSRYWNYYWGQGTQVTVSS | high polyreactivity
QVQLVESGGGLVQAGGSLRLSCAASGSTFTSYAMGWYRQAPGKESEFVAAISWDGDNTYADSVKGRFTISRDNAKNTVYLQMNSLKPEDTAVYYCAASHQNGNFGWGYDSWGQGTQVTVSS | high polyreactivity
QVQLVESGGGLVQAGGSLRLSCAASGSTFTSYAMGWYRQAPRKERELVAAINYSGGSTYYADSVKGRFTISRDNAKNTVYLQMNSLKPEDTAVYYCAADGYIRQYVTYYYWGQGTQVTVSS | low polyreactivity
QVQLVESGGGLVQAGGSLRLSCAASGSTFTSYTMGWYRQAPGKERELVARITRGGGSTYYADSVKGRFTISRDNAKNTVYLQMNSLKPEDTAVYYCNAEGYLLPVGNTMDYWGQGTQVTVSS | low polyreactivity
QVQLVESGGGLVQAGGSLRLSCAASGSTFTTNAMGWYRQAPGKEREFVAAITRSSGSTYYADSVKGRFTISRDNAKNTVYLQMNSLKPEDTAVYYCAAAYRQNPSQSKSRFGYWGQGTQVTVSS | high polyreactivity
QVQLVESGGGLVQAGGSLRLSCAASGSTFTTNAMGWYRQAPGKERELVAAISSGGRTYYADSVKGRFTISRDNAKNTVYLQMNRLKPEDTAVYYCAAEIYYSIYQGSRFYYRGQGTQVTVSS | high polyreactivity
QVQLVESGGGLVQAGGSLRLSCAASGSTFTTNVMGWYRQAPGKERELVAAISWSSGSTYYADSVKGRFTISRDNAKNTVYLQMNSLKPEDTAVYYCAAKSTYVVSKMNYWGQGTQVTVSS | high polyreactivity
QVQLVESGGGLVQAGGSLRLSCAASGSTFTTYAMAWYRQAPGKERELVAAISTNGGRTFYADSVKGRFTISRDNAKNTVYLLMNSLKAEDTAVYYCAADRAGSIMNYWGQGTQVTVSS | low polyreactivity
QVQLVESGGGLVQAGGSLRLSCAASGSTFTTYAMGWYRQAPGKEREFVASIRWRGGNTYYADSVKGRFTISRDNAKNTVYLQMNSLKPEDTAVYYCARRVDYISSKYGYWGQGTQVTVSS | high polyreactivity
QVQLVESGGGLVQAGGSLRLSCAASGSTFTTYAMGWYRQAPGKERELVAAISTNGGRTFYADSVKGRFTISRDNAKNTVYLQMISLKPEDTAVYYCAAEYGLYAPGYYYWGQGTQVTVSS | low polyreactivity
QVQLVESGGGLVQAGGSLRLSCAASGSTFTTYAMGWYRQSPGKERELVAVITDSGGTYYADSVKGRFTISRDNAKNTVYLQMNSLKPEDTAVYYCNRVFPPTDYEFDSWGQGTQVTVSS | low polyreactivity
QVQLVESGGGLVQAGGSLRLSCAASGSTFTTYPMGWYRQAPGKERELVAAISTNGGRTFYADSVKGRFTISGDNAKKTVYLQMNSLKPEDTAVYYCAAEYGLYAPGYYYWGQGTQVTVSS | low polyreactivity
QVQLVESGGGLVQAGGSLRLSCAASGSTFTVNAMGWYREAPGKERELVAAITTSGGSTYYADSVKGRFTISRDNAENTVYFQMNSLKPEDTAVYYCNADGPWREVERPFRKEGNYWGQGTQVTVSS | low polyreactivity
QVQLVESGGGLVQAGGSLRLSCAASGSTFTVNAMGWYRQAPGKDRELVADINWIGGATYYADSVKGRFTSSRDNAKNTVYLQMNSLKPEDTALYYCNADVWEYFTYSFTGFGWYDYWGQGTQVTVSS | high polyreactivity
